Experimental data reported in US9540424B2, “Serum albumin binding molecules” (BRISTOL-MYERS SQUIBB COMPANY, priority 2010, dated 2017).
Each block holds one molecule with its values, some of them ahead of it.

Legend:
RhSA = RhSA (Macaca mulatta, UniProt Q28522); assay: Biacore kinetics of SABAs on immobilized serum albumin: RhSA; type: binding, rhesus; conditions: for Kd: target RhSA
Protocol: (§1) In addition, binding to albumin was carried out under various pH conditions ranging from pH 5.5 to pH 7.4.

HSA = HSA (Homo sapiens, UniProt P02768); conditions: for Resistant to pH 7.4→5.5?: binding to HSA from pH 7.4 down to pH 5.5, symbols not defined
Protocol: as §1

[1] = Pharmacokinetics of His-tagged FGF21 and SABA-FGF21 fusions in monkeys; type: in vivo, cynomolgus monkeys; conditions: monkeys
Protocol: Various in vivo studies were conducted in mice and monkeys to characterize the pharmacokinetics of His-tagged FGF21 and SABA1-FGF21v1. An ELISA-based ligand binding assay was used to measure the His-tagged FGF21 and SABA1-FGF21v1 in all mouse and monkey plasma samples.
Following subcutaneous administration, His-tagged FGF21 was well absorbed.
Following subcutaneous administration, SABA1-FGF21v1 was well absorbed.

[2] = Half-life of HSA and of SABA1-4 with or without HSA in mice (ELISA, WinNonlin); type: in vivo, Ncr nude female mice; conditions: for PK (T½) Mice: co-injected with HSA (3-4 molar excess), tail vein; for half-life in mice plasma: injected without HSA; for increase in half life when co-injected with HSA: with HSA vs without HSA, mice
Protocol: The pharmacokinetic parameters of each Adnectin™ were determined using non-compartmental modeling with WinNonlin software.

Human serum albumin = biological target: T1, Human serum albumin (Homo sapiens, UniProt P02768); assay: SPR (ProteOn XPR36) binding of SABA-neuropeptide fusions to Human Serum Albumin; conditions: 25° C., average of two experiments
T1 construct: purchased Novozymes Recombumin
Protocol: Surface Plasmon Resonance (SPR) is a direct binding technique by which molecular interactions can be observed in real time. For these experiments, SPR binding studies were performed using a ProteOn XPR36 instrument (BioRad Laboratories). The running buffer, phosphate buffered saline 0.05% Tween 20 pH 7.4, was purchased from Teknova (cat #P1192) and all experiments were run at 25° C. Human serum albumin was directly immobilized on a BioRad GLC chip via amine coupling as per manufacturer's guidelines using amine coupling reagents purchased from BioRad Laboratories. Human serum albumin was purchased from Novozymes (Recombumin™). About 5000 resonance units (RU) of human serum albumin were immobilized onto 4 separate lanes of the GLC chip surface. For each analyte, five concentrations ranging from 15.6 nM to 250 nM were injected over the surface at 30 μl/min for 240 seconds. The dissociation was monitored for 600 seconds. The surface was regenerated with 100 mM HCl. The resultant data were fitted to a Langumuir 1:1 binding model using the ProteOn Manager Software. The experiment was repeated with a different concentration range. In this second experiment, 5 concentrations ranging from 500 nM to 32 nM were injected over the surfaces, and the data analyzed as above. The KD is the disassociation constant. Smaller numbers indicate tighter binding to serum albumin. Molecules covalently attached to SABA that bind to serum albumin display longer in vivo pharmokinetic half-lives, as described earlier with respect to SABA-FGF-21 fusions.

MuSA = MuSA (Mus musculus, UniProt P07724); assay: Biacore kinetics of SABAs on immobilized serum albumin: MuSA; type: binding
Chain of MuSA (P07724 25-608): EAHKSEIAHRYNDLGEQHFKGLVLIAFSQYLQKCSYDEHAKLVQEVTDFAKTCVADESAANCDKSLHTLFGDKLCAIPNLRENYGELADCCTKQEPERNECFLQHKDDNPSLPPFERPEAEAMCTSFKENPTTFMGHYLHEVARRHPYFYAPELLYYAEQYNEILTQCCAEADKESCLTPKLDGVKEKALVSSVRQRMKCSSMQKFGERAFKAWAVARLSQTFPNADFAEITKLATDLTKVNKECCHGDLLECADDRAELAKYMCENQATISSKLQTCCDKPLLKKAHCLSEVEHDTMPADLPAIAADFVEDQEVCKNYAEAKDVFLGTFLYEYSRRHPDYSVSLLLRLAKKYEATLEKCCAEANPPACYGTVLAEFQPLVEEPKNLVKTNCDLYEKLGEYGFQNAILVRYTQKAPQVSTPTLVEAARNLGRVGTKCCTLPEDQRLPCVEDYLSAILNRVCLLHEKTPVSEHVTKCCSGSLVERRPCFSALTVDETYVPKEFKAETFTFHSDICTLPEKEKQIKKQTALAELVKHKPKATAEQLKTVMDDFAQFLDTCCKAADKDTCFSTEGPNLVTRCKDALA

[3] = Analytical size exclusion chromatography (SEC) of SABAs; type: physicochemical; conditions: midscaled material
Protocol: Size exclusion chromatography (SEC) was performed on the SABAs resulting from the HTPP. SEC of HTPP derived material was performed using a Superdex 200 5/150 or Superdex 75 5/150 column (GE Healthcare) on an Agilent 1100 or 1200 HPLC system with UV detection at A214 nm and A280 nm and with fluorescence detection (excitation=280 nm, emission=350 nm). A buffer of 100 mM sodium sulfate, 100 mM sodium phosphate, 150 mM sodium chloride, pH 6.8 at appropriate flow rate of the SEC column employed. Gel filtration standards (Bio-Rad Laboratories, Hercules, Calif.) were used for molecular weight calibration.
Midscale expression and purification yielded highly pure and active Adnectins™ that were expressed in a soluble form and purified from the soluble fraction of the bacterial cytosol.
Standard size exclusion chromatography (SEC) was performed on the candidate SABAs resulting from the midscale process. SEC of midscaled material was performed using a Superdex 200 10/30 or on a Superdex 75 10/30 column (GE Healthcare) on an Agilent 1100 or 1200 HPLC system with UV detection at A214 nm and A280 nm and with fluorescence detection (excitation=280 nm, emission=350 nm). A buffer of 100 mM sodium sulfate, 100 mM sodium phosphate, 150 mM sodium chloride, pH 6.8 at appropriate flow rate of the SEC column employed. Gel filtration standards (Bio-Rad Laboratories, Hercules, Calif.) were used for molecular weight calibration.

[4] = intravenous, His-tagged FGF21 0.5 mg/kg, SABA1-FGF21v1 0.08 mg/kg

Chain of RhSA (Q28522 17-600): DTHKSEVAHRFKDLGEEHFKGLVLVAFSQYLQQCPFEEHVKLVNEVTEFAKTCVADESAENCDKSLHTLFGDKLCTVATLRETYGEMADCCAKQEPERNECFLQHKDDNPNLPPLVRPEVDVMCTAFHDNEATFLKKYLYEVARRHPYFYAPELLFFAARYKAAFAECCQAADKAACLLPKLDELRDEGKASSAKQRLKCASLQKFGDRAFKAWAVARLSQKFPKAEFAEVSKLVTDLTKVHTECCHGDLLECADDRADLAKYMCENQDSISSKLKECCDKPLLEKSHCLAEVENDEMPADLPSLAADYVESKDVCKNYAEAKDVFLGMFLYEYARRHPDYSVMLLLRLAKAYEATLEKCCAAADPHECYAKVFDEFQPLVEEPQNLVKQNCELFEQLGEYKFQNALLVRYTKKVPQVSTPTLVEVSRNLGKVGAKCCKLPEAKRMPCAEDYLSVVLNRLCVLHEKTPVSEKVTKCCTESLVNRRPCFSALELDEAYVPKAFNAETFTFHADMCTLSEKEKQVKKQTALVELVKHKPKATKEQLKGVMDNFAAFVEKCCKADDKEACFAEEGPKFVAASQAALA

B1: SABA1: serum albumin binding 10Fn3 core sequence, SEQ ID NO: 4; in Table 5 stands for SABA1.1 (protein)
chain: EVVAATPTSLLISWHSYYEQNSYYRITYGETGGNSPVQEFTVPYSQTTATISGLKPGVDYTITVYAVYGSKYYYPISINYRT
Kd (RhSA): 778 nM | Kd (HSA): 47.2 nM

B2: FGF21-SABA1v1: fusion in which the SABA moiety is at the C-terminus of FGF21, SEQ ID NO: 171; 300 aa; DNA SEQ ID NO: 180 (protein)
chain: MPIPDSSPLLQFGGQVRQRYLYTDDAQQTEAHLEIREDGTVGGAADQSPESLLQLKALKPGVIQILGVKTSRFLCQRPDGALYGSLHFDPEACSFRELLLEDGYNVYQSEAHGLPLHLPGNKSPHRDPAPRGPARFLPLPGLPPALPEPPGILAPQPPDVGSSDPLSMVGPSQGRSPSYASGGSGSGSGSGSGSGSGVSDVPRDLEVVAATPTSLLISWHSYYEQNSYYRITYGETGGNSPVQEFTVPYSQTTATISGLKPGVDYTITVYAVYGSKYYYPISINYRTEIDKPSQHHHHHH
increase of t1/2 compared to His-tagged FGF21 [1]: ~27 fold | CL (total body plasma clearance, CLTp) [1, 4]: 1.2 mL/h/kg | T½ (terminal half-life) [1, 4]: 50.3 h | Vdss (steady-state volume of distribution, Vss) [1, 4]: 0.06 L/kg

B4: SABA1-APPv7: SEQ ID NO: 364; SABA1.7-(ED)5G-Cys conjugated to Maleimide-PEG20-PP-CONH2 (conjugate)
chain: MGVSDVPRDLEVVAATPTSLLISWHSYYEQNSYYRITYGETGGNSPVQEFTVPYSQTTATISGLKPGVDYTITVYAVYGSKYYYPISINYRTEIEDEDEDEDEDGC
modifications: Maleimide-PEG20-PP-CONH2 conjugated via Cys
Koff (1/s) (Human serum albumin): 1.42 10^−4 1/s | Kon (1/Ms) (Human serum albumin): 7.88 10^3 1/Ms

B5: SABA1-PYYv7: SEQ ID NO: 344; SABA1.7-(ED)5G-Cys conjugated to Maleimide-PEG20-PYY-CONH2 (conjugate)
chain: MGVSDVPRDLEVVAATPTSLLISWHSYYEQNSYYRITYGETGGNSPVQEFTVPYSQTTATISGLKPGVDYTITVYAVYGSKYYYPISINYRTEIEDEDEDEDEDGC
modifications: Maleimide-PEG20-PYY-CONH2 conjugated via Cys
Koff (1/s) (Human serum albumin): 2.08 10^−4 1/s | Kon (1/Ms) (Human serum albumin): 9.29 10^3 1/Ms

More lines, main results first:

Kd (RhSA): > 1000 nM | Resistant to pH 7.4→5.5? (HSA): pH sensitive
B3: SABA4: SABA core with a scaffold mutation; same BC, DE, FG loops as SABA5; in Table 5 stands for SABA4.1 (protein)
chain: EMVAATPTSLLISWEDDSYYSRYYRITYGETGGNSPVQEFTVPSDLYTATISGLKPGVDYTITVYAVTYDVTDLIMHEPISINYRT
Kd (HSA): 412 nM | PK (T½) Mice [2]: 4.6 h

Kd (RhSA): 63.6 nM | Resistant to pH 7.4→5.5? (HSA): pH sensitive
B6: SABA2: SABA core sequence from PROfusion; in Table 5 stands for SABA2.1 (protein)
chain: EVVAATPTSLLISWPKYDKTGHYYRITYGETGGNSPVQEFTVPTRQTTATISGLKPGVDYTITVYAVSKDDYYPHEHRPISINYRT
Kd (HSA): 33.8 nM

Kd (RhSA): 431 nM
B7: SABA3: SABA core sequence from PROfusion; in Table 5 stands for SABA3.1 (protein)
chain: EVVAATPTSLLISWSNDGPGLSYYRITYGETGGNSPVQEFTVPSSQTTATISGLKPGVDYTITVYAVSYYTKKAYSAGPISINYRT
Kd (HSA): 863 nM | Resistant to pH 7.4→5.5? (HSA): pH resistant binding to HSA down to pH 6.0

Comments: binding affinity for RhSA (RhSA): Poor binding affinity for RhSA. | cross reaction with RhSA (RhSA): cross reacted | Comments: decrease in KD observed at pH <6.0 (HSA; pH <6.0): >2-fold decrease in KD observed at | cross reaction with MuSA (MuSA): did not cross react
B8: SABA4.1: HSA binding clone of SABA4 (protein)
chain: MGVSDVPRDLEMVAATPTSLLISWEDDSYYSRYYRITYGETGGNSPVQEFTVPSDLYTATISGLKPGVDYTITVYAVTYDVTDLIMHEPISINYRTEIDKPSQHHHHHH
modifications: His6 tag
PK (T½) Mice [2]: 4.6 h | half-life in mice plasma [2]: 0.66 h | increase in half life when co-injected with HSA [2]: ~7 fold

cross reaction with RhSA (RhSA): cross reacted | Comments: binding in dependence of pH (HSA): Loss of binding at pH ≦6.5 | cross reaction with MuSA (MuSA): did not cross react
B9: SABA2.1: His-tagged SABA2 sequence (protein)
chain: MGVSDVPRDLEVVAATPTSLLISWPKYDKTGHYYRITYGETGGNSPVQEFTVPTRQTTATISGLKPGVDYTITVYAVSKDDYYPHEHRPISINYRTEIDKPSQHHHHHH
modifications: His6 tag
SEC Dimer (%) [3]: 9% | SEC Monomer (%) [3]: 91% | PK (T½) Mice [2]: 2.8 h | half-life in mice plasma [2]: 0.24 h | increase in half life when co-injected with HSA [2]: ~12 fold
